US20080286264A1 (Dana-Farber, published 2008)

Target: p53(293-393) (human, UniProt P04637 293-393)
Assay: co-IP with anti-p53 from transfected U2OS cells, immunoblot with anti-MUC1 C-ter

Sequence of p53(293-393) (P04637 293-393): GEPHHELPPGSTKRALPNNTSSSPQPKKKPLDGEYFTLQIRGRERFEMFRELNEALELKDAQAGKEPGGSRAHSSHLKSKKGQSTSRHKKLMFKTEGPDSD

- binding result: binds
B1: Myc-MUC1-CD(1-72) (other)
chain: CQCRRKNYGQLDIFPARDTYHPMSEYPTYHTHGRYVPPSSTDRSPYEKVSAGNGGSSLSYTNPAVAATSANL
notes: Transiently expressed in U2OS cells; not shown: Myc tag
